Reference: paper PMC6894278, “Enzymatic synthesis of L-fucose from L-fuculose using a fucose isomerase from Raoultella sp. and the biochemical and structural analyses of the enzyme” (Biotechnology for Biofuels, 2019)
Blank lines part the entries; values can stand above or below the molecule they belong to.

Legend:
[1] = target: L-fucose isomerase from Raoultella sp. KDH14 (RdFucI) (Raoultella sp. KDH14); assay: SEC; analytical size-exclusion chromatography, Superdex 200 10/300 GL, 10 mM Tris-HCl, 200 mM NaCl, pH 8.0; calibrated with standard proteins
[2] = target: L-fucose isomerase from Raoultella sp. KDH14 (RdFucI) (Raoultella sp. KDH14); assay: crystal structure; six subunits in the asymmetric unit; crystals grown in 0.1 M HEPES pH 7.5, 20% (w/v) PEG 10,000 at 20 °C; also soaked with 10 mM Mn2+
[3] = substrate: O=C(CO)[C@H](O)[C@H](O)CO; assay: isomerase kinetics, D-ribulose to D-arabinose; format: biochemical, Klebsiella planticola; details: 1 mM MnCl2 (general assay); pH and temperature of the kinetics not stated in main text; pH 10.0; 40.0 °C
Description: isomerase kinetics, D-ribulose to D-arabinose on RdFucI | Kinetic parameters were determined using L-fuculose and D-ribulose as the substrates

stoichiometry N [1]: 6
stoichiometry N [2]: 6
Molecule: L-fucose isomerase from Raoultella sp. KDH14 (RdFucI) (enzyme)

B1: RdFucI (Klebsiella planticola) (protein)
chain: MKRISLPKIGIRPVIDGRRMGVRESLEEQTMNMAKATAALISEKLRHASGAQIECVIADTCIAGMAESAACEEKFSSQNVGVTITVTPCWCYGSETIDMDPLRPKAIWGFNGTERPGAVYLAAALAAHSQKGIPAFSIYGHDVQDADDTTIPADVEEKLLRFARAGLAVASMKGKSYLSVGGVSMGIAGSIVDHNFFESWLGMKVQAVDMTELRRRIDQKIYDEVELEMALAWADKNFRYGEDQNAQHYKRDEEQSRAVLKESLLMAMCIRDMMQGNKKLAEKGLVEESLGYNAIAAGFQGQRHWTDQYPNGDTAEALLNSSFDWNGVREPFVVATENDSLNGVAMLMGHQLTGTAQVFADVRTYWSPDAVERVTGQPLTGLAEHGIIHLINSGSAALDGSCKQRDEEGKPTMKPHWEISQKEADACLAATEWCPAIHEYFRGGGYSSRFLTEGGVPFTMTRVNIIKGLGPVLQIAEGWSVELPKAMHDQLDARTNSTWPTTWFAPRLTGKGPFADVYSVMANWGANHGVLTIGHVGADFITLAAMLRIPVCMHNVEEGKIYRPSSWSAHGMDTEGQDYRACQNYGPLYKR
notes: N-terminal His6 tag (pET28a, NdeI/EcoRI), E. coli BL21(DE3); tag removal not mentioned; homohexamer
Km [3]: 13.7 ± 1.1 mM
kcat [3]: 138 ± 5.69 s⁻¹
kcat/Km [3]: 10100 ± 493 M⁻¹ s⁻¹
